Experimental data taken from article PMC8565349 (Nucleic Acids Research, 2021).
Numbering of substitutions follows the chain as printed. Names and notes keep the numbering of the source.

T1: purified S. aureus β-clamp (ITC sample) (S. aureus, UniProt P0A024 1-377)
T1 sequence: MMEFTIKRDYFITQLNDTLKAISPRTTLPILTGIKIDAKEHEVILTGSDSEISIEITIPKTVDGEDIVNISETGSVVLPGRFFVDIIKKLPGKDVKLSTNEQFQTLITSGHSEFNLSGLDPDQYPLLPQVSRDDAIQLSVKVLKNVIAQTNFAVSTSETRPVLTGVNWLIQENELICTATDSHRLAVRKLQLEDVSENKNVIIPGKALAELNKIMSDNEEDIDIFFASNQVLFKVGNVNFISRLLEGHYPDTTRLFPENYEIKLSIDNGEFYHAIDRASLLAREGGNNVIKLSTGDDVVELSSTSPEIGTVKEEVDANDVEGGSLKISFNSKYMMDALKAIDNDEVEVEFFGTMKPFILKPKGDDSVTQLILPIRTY

B1: polyhistidine-tagged Gp168 of bacteriophage Twort (natural protein)
chain: MLFFKEKFYNELSYYRGGHKDLESMFELALEYIEKLEEEDEQQVTDYENAMEEELRDAVDVIESQLEIIKDIVR
B2: polyhistidine-tagged Gp168 Y14A (natural protein, bacteriophage Twort)
chain: B1 chain with Y14A

Columns and labels:
[1] = target: the molecule itself; test: cryo-EM structure
[2] = target: the molecule itself; test: SEC-MALS
[3] = target: T1, purified S. aureus β-clamp (ITC sample); test: ITC
[4] = target: the molecule itself; test: SEC

Binder	stoichiometry N [1]	stoichiometry N [2]	Kd [3]	stoichiometry N [3]	stoichiometry N [4]
B1	2	6	95 ± 16.7 nM	0.16 ± 0.003	
B2					6
